No end group written: not given here.

Assay [1] concerns the target human serum albumin (HSA) (Homo sapiens, UniProt P02768). Kind of assay: SPR spectroscopy, HBD binding to immobilized human serum albumin. The conditions noted are these: in terms of absolute response and kinetic shape of binding. A general note: SPR reads the build-up and loss of mass on a sensor chip optically.
Assay [2] relates to immobilized P. gingivalis hemagglutinin B (HagB). The conditions noted are these: ref [2]; cited from earlier work.
For assay [3], the system named is immobilized adhesins from the periodontal pathogen Porphyromonas gingivalis. The conditions noted are these: ref [2], [5], [18]; cited from earlier work.
The target of assay [4] is Bla g2 from the German cockroach (Blattella germanica) (Blattella germanica). Briefly: SPR.

As to “HBD1: human β-defensin used as a control β-defensin; purchased from PeproTech, Inc. (DHYNCVSSGGQCLYSACPIFTKIQGTCYRGKAKCCK; ends and bridges not checked; cysteine pairing not given here)”, the “binding to HSA compared with Bla g2 (in words)” value in assay [1] is on record as “bound to immobilized HSA similar to Bla g2”.

In the case of histatin 5, the “binding to immobilized HagB (in words)” value in assay [2] is recorded as “bind specifically”. Further, the “binding to immobilized adhesins from P. gingivalis (in words)” value in assay [3] is reported as “specifically bind”.

B1: Human β-defensin 3 (peptide)
chain: GIINTLQKYYCRVRGGRCAVLSCLPKEEQIGKCSTRGRKCCRRKK
modifications: ends and bridges not checked; cysteine pairing not given here
In the case of B1, the Kd (usually the constant that tells how readily two partners part at equilibrium) in assay [4] amounted to 5.9 µM.

(Values after publication PMC3992933 (Peptides, 2014).)
